Test results published in US20140234331A1 (published 2014).

Columns and labels:
[1] = target: Macaque CTLA-4 expressed on transfected T-cells (macaque); experiment: flow cytometry (FACScan) on cell line expressing recombinant macaque CTLA-4
[2] = target: T1, Recombinant CTLA-4 fusion protein comprising the extracellular domain of human CTLA-4 (R&D Systems Cat. … (human, UniProt P16410 36-161)); experiment: competitive ELISA with biotin labeled and unlabeled antibodies
T1 construct: extracellular domain; Bought protein; also called recombinant human CTLA-4 fusion protein; soluble CTLA-4; not shown: Factor Xa cleavage site and fusion partner (called Ig)
T1 sequence (looked up): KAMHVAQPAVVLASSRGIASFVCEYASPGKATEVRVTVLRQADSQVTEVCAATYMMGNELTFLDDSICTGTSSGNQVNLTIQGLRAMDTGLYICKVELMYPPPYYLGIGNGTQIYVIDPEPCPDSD
Excerpt: Competitive ELISAs were done with biotin labeled and unlabeled antibodies to determine CTLA-4 epitope specificity. Four anti-CTLA-4 epitope binding groups were identified among the human antibodies, and an additional two epitopes were defined by the commercial murine monclonal antibodies BNI3 (Pharmingen, San Diego, Calif.), and 8H5 (Ancell Corp. Bayport, Minn.).

## isotype control (Table 5) (antibody)
[1]
  MFI: 4 MFI

B1: 1E2 (human anti-CTLA-4 monoclonal antibody) (antibody, V domains shown)
VH: QVQLVESGGGVVQPGRSLRLSCAASGFTFSSYGMHWVRQAPGKGLEWVAVIWYDGSNKYYADSVKGRFTISRDNSKNTLYLQMNSLRAEDTAVFYCARAPNYIGAFDVWGQGTMVTVSS
VL: DIQMTQSPSSLSASVGDRVTITCRASQGISSWLAWYQQKPEKAPKSLIYAASSLQSGVPSRFSGSGSGTDFTLTISSLQPEDFATYYCQQYNSYPPTFGQGTKVEIK
[2]
  binding result: binds
